Our source for the IC50 values is patent US8815802 (Novo Nordisk, dated 2014).

As a reminder, the IC50 is the concentration needed to halve the response being measured. Higher therefore signals weaker potency.

Experiment [1] addresses T1, human GLP-1 receptor (human, UniProt P43220 24-463).
T1 construct: whole, on cells; Used as purified plasma membranes of the transfected hamster cell line, not as intact cells; also called hGLP-1
The experiment is described as follows: SPA, displacement of 125I-GLP-1(7-36)NH2 from hGLP-1R membranes, 2.0% HSA. The procedure: (§1) 25 ul (micro liter) of test compounds were added to Optiplate. HSA ("high albumin" experiment containing 2% HSA), or buffer ("low albumin" experiment containing 0.005% HSA), was added (50 ul). 5-10 ug protein/sample was added (50 ul) corresponding to 0.1-0.2 mg protein/ml (to be preferably optimised for each membrane preparation). SPA-particles (Wheatgerm agglutinin SPA beads, Perkin Elmer, #RPNQ0001) were added in an amount of 0.5 mg/well (50 ul). […] The plates were sealed with PlateSealer and incubated for 120 minutes at 30° C. while shaking. The plates were centrifuged (1500 rpm, 10 min) and counted in Topcounter.
Background: Loss of bound radioactivity is the signal in a displacement assay; it reports binding, not function.

Experiment [2] deals with T1, human GLP-1 receptor. The experiment is described as follows: SPA, displacement of 125I-GLP-1(7-36)NH2 from hGLP-1R membranes, 0.005% HSA. The procedure: as §1

Numbered stars: 1 amine (or outer) side, 2 acyl side, 3 side chain; on linkers, the order of the positions; unused ones are H or OH. Square brackets hold non-standard residues; d marks the D form. Side chains are listed from the residue outwards. Ends that are not written are not given here. * marks the point of attachment. Malonyl(2,2-Me2,histaminyl) = CC(C)(C(=O)NCCc1cnc[nH]1)C(=O)*; C20 diacid = O=C(O)CCCCCCCCCCCCCCCCCCC(=O)*; C18 diacid = O=C(O)CCCCCCCCCCCCCCCCC(=O)*; C16 diacid = O=C(O)CCCCCCCCCCCCCCC(=O)*; γGlu = O=C(O)[C@H](CCC(=O)[*:2])N[*:1]; Desaminohistidyl = O=C(CCc1c[nH]cn1)*; Palmitoyl = CCCCCCCCCCCCCCCC(=O)*; Trx = NC[C@H]1CC[C@H](C(=O)O)CC1; AEEA = NCCOCCOCC(=O)O; Aib = CC(C)(N)C(=O)O; Inp = O=C(O)C1CCNCC1

For [Desaminohistidyl]AEGTFTSDVSSYLEEQAAREFIAHLVQGRK([AEEA-AEEA-γ‑D‑Glu-Trx-C20 diacid]), the IC50 is at most 1000 nM in experiment [1] and under 600 nM in experiment [2].

Regarding H[dA]EGTFTSDVSSYLEGQAAK([AEEA-AEEA-γGlu-C18 diacid])EFIAHLVQGRG, the values for the IC50 in experiment [1] and in experiment [2] were at most 1000 nM and under 600 nM, respectively.

As to {Malonyl(2,2-Me2,histaminyl)}-EGTFTSDVSSYLEGQAAK([AEEA-AEEA-γGlu-C18 diacid])EFIAHLVQGRG (also called Chem. 37), the figures for the IC50 in experiment [1] and in experiment [2] were at most 1000 nM and under 600 nM, respectively.

B1: [Imp^7,Glu^22,Arg^26,His^31,Gln^34,Lys^37]-GLP-1-(7-37)-peptide (peptide)
peptide: [Desaminohistidyl]AEGTFTSDVSSYLEEQAAREFIAHLVQGRK
notes: unacylated analogue; also called Chem. 40
On to B1, for which the 50% inhibitory concentration (IC50) was at most 1000 nM in experiment [1] and under 600 nM in experiment [2].

With HAEGTFTSDVSSYLEGQAAK([γGlu-C16 diacid])EFIAHLVQGRG [N^ε26-[(4S)-4-carboxy-4-(15-carboxypentadecanoylamino)butanoyl]-[His^31,Gln^34]-GLP-1-(7-37)-peptide], the figures for the 50% inhibitory concentration (IC50) in experiment [1] and in experiment [2] were at most 1000 nM and under 600 nM, respectively.

For HAEGTFTSDVSSYLEGQAAK([AEEA-AEEA-γGlu-C18 diacid])EFIAHLVQGRG, the IC50 was at most 1000 nM in experiment [1] and under 600 nM in experiment [2].

HAEGTK([AEEA-AEEA-C18 diacid])TSDVSSYLEEQAAREFIAHLVQGRG: the IC50 in experiment [1] is at most 1000 nM; in experiment [2] it was under 600 nM.

Take HSEGTFTSDVSSYLEGQAAK([AEEA-AEEA-γGlu-C18 diacid])EFIAHLVQGRG: the IC50 in experiment [1] is at most 1000 nM; in experiment [2], under 600 nM.

As to HAEGTK([AEEA-AEEA-γGlu-C18 diacid])TSDVSSYLEEQAAREFIAHLVQGRG, the IC50 in experiment [1] was at most 1000 nM; in experiment [2], under 600 nM.

Regarding HGEGTFTSDVSSYLEGQAAK([AEEA-AEEA-γGlu-C18 diacid])EFIAHLVQGRG, the IC50 was at most 1000 nM in experiment [1] and under 600 nM in experiment [2].

As for HAEGTFTSDVSSYLEEQK([AEEA-AEEA-γGlu-C18 diacid])AREFIAHLVQGRG, the 50% inhibitory concentration (IC50) in experiment [1] was at most 1000 nM; in experiment [2] it was under 600 nM.

For the molecule HAEGTFTSDVSSYLEK([AEEA-AEEA-γGlu-C18 diacid])QAAREFIAHLVQGRG, the half-maximal inhibitory concentration (IC50) was at most 1000 nM in experiment [1] and under 600 nM in experiment [2].

B2: [Aib^8,His^31,Gln^34]GLP-1(7-37)-peptide (peptide)
peptide: HXEGTFTSDVSSYLEGQAAKEFIAHLVQGRG
modifications: Aib8 (GLP-1(7-37) numbering)
notes: unacylated analogue; also called (8Aib, 31H, 34Q)
For B2, the figures for the IC50 in experiment [1] and in experiment [2] were at most 1000 nM and under 600 nM, respectively.

Turning to HXEGTFTSDVSSYLEGQAAKEFIAHLVQGRG (Aib8; Lys26 N-epsilon-acylated (side chain as in name); GLP-1(7-37) numbering) [N^ε26 [(S)-4-Carboxy-4-(15-carboxypentadecanoylamino)butyryl][Aib^8,His^31,Gln^34]GLP-1(7-37)-peptide, listing 1 of 5 here], the results for the half-maximal inhibitory concentration (IC50) in experiment [1] and in experiment [2] were at most 1000 nM and under 600 nM, respectively.

For the molecule HXEGTFTSDVSSYLEGQAAKEFIAHLVQGRG (Aib8; Lys26 N-epsilon-acylated (side chain as in name); GLP-1(7-37) numbering) [N^ε26 [(S)-4-Carboxy-4-(2-{2-[2-(2-{2-[2-(17-carboxy-heptadecanoylamino)ethoxy]ethoxy}acetylamino)ethoxy]-ethoxy}acetylamino)butyryl] …, listing 2 of 5 here], the half-maximal inhibitory concentration (IC50) is at most 1000 nM in experiment [1] and under 600 nM in experiment [2].

In the case of HXEGTFTSDVSSYLEGQAAKEFIAHLVQGRG (Aib8; Lys26 N-epsilon-acylated (side chain as in name); GLP-1(7-37) numbering) [N^ε26[2-(2-{2-[(S)-4-Carboxy-4-(2-{2-[2-(17-carboxy-heptadecanoylamino)ethoxy]ethoxy}acetylamino)butyryl amino]ethoxy}ethoxy)acetyl] …, listing 3 of 5 here], the half-maximal inhibitory concentration (IC50) in experiment [1] was at most 1000 nM; in experiment [2], under 600 nM.

Take HXEGTFTSDVSSYLEGQAAKEFIAHLVQGRG (Aib8; Lys26 N-epsilon-acylated (side chain as in name); GLP-1(7-37) numbering) [N^ε26 [2-(2-(2-{2-[(S)-4-Carboxy-4-(15-carboxypentadecanoylamino)butyrylamino]ethoxy}ethoxy)acetyl][Aib^8,His^31,Gln^34]GLP-1(7-37)-peptide, listing 4 of 5 here]: the half-maximal inhibitory concentration (IC50) in experiment [1] was at most 1000 nM; in experiment [2] it was under 600 nM.

In the case of HXEGTFTSDVSSYLEGQAAKEFIAHLVQGRG (Aib8; Lys26 N-epsilon-acylated (side chain as in name); GLP-1(7-37) numbering) [N^ε26-[2-(2-{2-[2-(2-{2-[(S)-4-Carboxy-4-(15-carboxypentadecanoylamino)butyrylamino]ethoxy}ethoxy)acetylamino]ethoxy}ethoxy)acetyl][Aib^8,His^31,Gln^34]GLP-1(7- …, listing 5 of 5 here], the IC50 in experiment [1] was at most 1000 nM; in experiment [2] it was under 600 nM.

H[Aib]EGTK([AEEA-AEEA-γGlu-C18 diacid])TSDVSSYLEGQAAKEFIAHLVQGRG: the IC50 in experiment [1] was at most 1000 nM; in experiment [2] it was under 600 nM.

Regarding H[Aib]EGTFTSDVSSYLEEQAARK([AEEA-AEEA-γGlu-C18 diacid])FIAHLVQGRG, the half-inhibitory concentration (IC50) was at most 1000 nM in experiment [1] and under 600 nM in experiment [2].

In the case of H[Aib]EGTFTSDVSK([AEEA-AEEA-γGlu-C18 diacid])YLEEQAAREFIAHLVQGRG, the IC50 is at most 1000 nM in experiment [1] and under 600 nM in experiment [2].

Take H[Aib]EGTFTSDVSSYLEEQK([AEEA-AEEA-γGlu-C18 diacid])AREFIAHLVQGRG: the half-maximal inhibitory concentration (IC50) in experiment [1] is at most 1000 nM; in experiment [2] it was under 600 nM.

Regarding H[Aib]EGTK([AEEA-AEEA-γGlu-C18 diacid])TSDVSSYLEEQAAREFIAHLVQGRG, the figures for the IC50 in experiment [1] and in experiment [2] were at most 1000 nM and under 600 nM, respectively.

Consider H[Aib]EGTFTSDVSSYLEGQAARK([AEEA-AEEA-γGlu-C18 diacid])FIAHLVQGRG, for which the half-maximal inhibitory concentration (IC50) in experiment [1] was at most 1000 nM; in experiment [2], under 600 nM.

Consider H[Aib]EGTFTSDVSSYLEEQAARK([AEEA-AEEA-γGlu-C18 diacid])FIEHLVQGRP, for which the concentration for half-maximal inhibition (IC50) is at most 1000 nM in experiment [1] and under 600 nM in experiment [2].

Take H[Aib]EGTFTSDVSK([AEEA-AEEA-γGlu-Inp-C20 diacid])YLEEQAAHEFIAHLVQGRG: the 50% inhibitory concentration (IC50) is at most 1000 nM in experiment [1] and under 600 nM in experiment [2].

Turning to H[Aib]EGTFTSDK([AEEA-AEEA-γGlu-C18 diacid])SSYLEEQAAREFIAHLVQGRG, the IC50 in experiment [1] is at most 1000 nM; in experiment [2], under 600 nM.

In the case of H[Aib]EGTFTSDVSSYLEGQAIRK([AEEA-AEEA-γGlu-C18 diacid])FIAHLVQGRG, the half-inhibitory concentration (IC50) in experiment [1] was at most 1000 nM; in experiment [2] it was under 600 nM.

In the case of H[Aib]EGTK([AEEA-AEEA-C18 diacid])TSDVSSYLEEQAAREFIAHLVQGRG, the IC50 is at most 1000 nM in experiment [1] and under 600 nM in experiment [2].

B3: N^8 3H-Imidazol-4-yl-acetyl, N^ε28-[2-(2-{2-[2-(2-{2-[(S)-4-Carboxy-4-(17-carboxyheptadecanoylamino)butyrylamino]ethoxy}ethoxy)acetylamino] … (peptide)
peptide: AEGTFTSDVSSYLEGQAAK([AEEA-AEEA-γGlu-C18 diacid])EFIAHLVQGRG
modifications: not fully specified (N-terminus); printed as N^8 3H-Imidazol-4-yl-acetyl, N^ε28-[2-(2-{2-[2-(2-{2-[(S)-4-Carboxy-4-(17-carboxyheptadecanoylamino)butyrylamino]ethoxy}ethoxy)acetylamino] ethoxy}ethoxy)acetyl][His^31,Gln^34]GLP-1(8-37)-peptide
For the molecule B3, the IC50 in experiment [1] was at most 1000 nM; in experiment [2], under 600 nM.

With HAEGTFTSDVSSYLEGQAAK([γGlu-Palmitoyl])EFIAHLVQGRG [N^ε26-[(4S)-4-carboxy-4-(hexadecanoylamino)butanoyl]-[His^31,Gln^34]-GLP-1-(7-37)-peptide], the concentration for half-maximal inhibition (IC50) in experiment [1] is at most 1000 nM; in experiment [2], under 600 nM.
